Source: publication PMC11334715 (Science immunology, 2024)
Like-named read-outs stand apart in the source and are kept apart here.

Experiments:
[1] = biological target: T1, murine LRIG1.ECD.His recombinant protein (mouse, UniProt P70193 35-796); assay: SPR
T1 sequence (looked up): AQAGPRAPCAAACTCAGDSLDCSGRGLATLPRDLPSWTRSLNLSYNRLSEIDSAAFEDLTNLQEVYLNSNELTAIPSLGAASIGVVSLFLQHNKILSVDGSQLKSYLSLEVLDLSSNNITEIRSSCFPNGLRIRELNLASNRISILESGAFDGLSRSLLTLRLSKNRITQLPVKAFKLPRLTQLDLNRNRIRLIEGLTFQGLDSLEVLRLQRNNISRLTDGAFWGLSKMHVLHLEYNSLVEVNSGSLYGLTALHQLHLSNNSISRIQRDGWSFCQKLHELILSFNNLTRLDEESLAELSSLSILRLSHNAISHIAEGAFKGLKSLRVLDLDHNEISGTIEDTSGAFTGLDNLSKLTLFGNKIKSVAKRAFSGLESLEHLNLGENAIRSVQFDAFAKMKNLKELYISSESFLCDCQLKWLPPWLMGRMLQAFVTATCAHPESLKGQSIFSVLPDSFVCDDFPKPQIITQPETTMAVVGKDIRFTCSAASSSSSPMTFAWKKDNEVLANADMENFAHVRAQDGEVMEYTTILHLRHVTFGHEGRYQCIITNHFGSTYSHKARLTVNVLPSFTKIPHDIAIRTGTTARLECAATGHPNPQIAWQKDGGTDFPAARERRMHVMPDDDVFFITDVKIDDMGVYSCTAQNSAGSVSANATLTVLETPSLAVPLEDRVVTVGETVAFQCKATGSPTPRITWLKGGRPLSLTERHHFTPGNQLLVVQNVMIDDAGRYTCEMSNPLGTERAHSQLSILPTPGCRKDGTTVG

[2] = biological target: T1, murine LRIG1.ECD.His recombinant protein; assay: SPR; remark: listed apart in the source

Kd [1]: 1.2 nM
Kd [2]: 3.44 nM
B1: murine VISTA.Fc recombinant protein (VISTA.ECD) (Fc fusion, UniProt Q9D659 33-191, looked up)
chain: FKVTTPYSLYVCPEGQNATLTCRILGPVSKGHDVTIYKTWYLSSRGEVQMCKEHRPIRNFTLQHLQHHGSHLKANASHDQPQKHGLELASDHHGNFSITLRNVTPRDSGLYCCLVIELKNHHPEQRFYGSMELQVQAGKGSGSTCMASNEQDSDSITAA
